According to publication doi:10.1101/2023.07.18.549252 (bioRxiv, 2023):
Substitutions are numbered along the chain they refer to. Names and notes keep the numbering of the source.

B1: VHH Z70 mutant 3 (R47K), Gal4 activation domain fusion prey (VHH)
VHH: EVQLQASGGVFVQSGGSLRLSCAASGATSTFDGMGWFRQAPGKEKEFVSAISYEQGSYTYYADSVKGRFTISRDNSKNMVYLQMNSLRAEDTATYYCAPAYEGDLYAFDSYGGQGTQVTVSS
B2: VHH Z70 mutant 9 (P101S + G115E), Gal4 activation domain fusion prey (VHH)
VHH: B1 VHH with K45R, P99S, G113E
B3: VHH Z70 mutant 15 (R90G + P101S + G114E), Gal4 activation domain fusion prey (VHH)
VHH: B1 VHH with K45R, R88G, P99S, G112E
B4: VHH Z70 mutant 5 (T96S), Gal4 activation domain fusion prey (VHH)
VHH: B1 VHH with K45R, T94S
B5: VHH Z70 mutant 14, Gal4 activation domain fusion prey (VHH)
VHH: B1 VHH with T30I, K45R, E54G, G113E
B6: VHH Z70 mutant 12 (S23C + G115E), Gal4 activation domain fusion prey (VHH)
VHH: B1 VHH with S21C, K45R, G113E
B7: VHH Z70 mutant 14 (VHH)
VHH: B1 VHH with T30I, K45R, E54G, G113E
B8: VHH Z70 mutant 5 (T96S) (VHH)
VHH: B1 VHH with K45R, T94S
B9: VHH Z70 mutant 1 (G115E) (VHH)
VHH: B1 VHH with K45R, G113E
B10: VHH Z70 mutant 3 (R47K) (VHH)
VHH: B1 VHH
B11: VHH Z70 mutant 15 (R90G + P101S + G114E) (VHH)
VHH: B1 VHH with K45R, R88G, P99S, G112E
B12: VHH Z70 mutant 20 (R47K + G115E) (VHH)
VHH: B1 VHH with G113E
B13: VHH Z70 mutant 9 (P101S + G115E) (VHH)
VHH: B1 VHH with K45R, P99S, G113E
B14: VHH Z70 mutant 12 (S23C + G115E) (VHH)
VHH: B1 VHH with S21C, K45R, G113E
B15: TAMRA-labelled VHH Z70 mutant 20 (double mutation R47K + G115E) with a terminal cysteine (VHH)
VHH: B1 VHH with G113E
B16: TAMRA-labelled VHH Z70 mutant 3 (R47K) with a terminal cysteine (VHH)
VHH: B1 VHH

Target: Tau-LexA (Tau variant 0N4R isoform with a C-terminal LexA fusion) (Homo sapiens, UniProt P10636-6)
Assay: two-hybrid

| Binder | binding result |
| --- | --- |
| B1 | binds |
| B2 | binds |
| B3 | binds |
| B4 | binds |
| B5 | binds |
| B6 | binds |

Target: Biotinylated Tau 2N4R (Homo sapiens, UniProt P10636-8, biotin (NHS-biotin conjugates, 5 molar excess; sites not stated))
Assay: SPR

| Binder | binding result | Kd [nM] |
| --- | --- | --- |
| B7 | binds |  |
| B8 | binds |  |
| B9 |  | 23 |
| B10 | binds |  |
| B11 | binds |  |
| B12 | binds |  |
| B13 | binds |  |
| B14 | binds |  |

Target: Tau (on the Western blot membrane) (Homo sapiens, UniProt P10636)
Assay: far-Western, overlay or dot blot

| Binder | binding result |
| --- | --- |
| B15 | binds |
| B16 | binds |

Target: Tau 2N4R (recombinant; 15N-labelled for NMR) (Homo sapiens, UniProt P10636-8)
Assay: NMR titration

| Binder | binding result |
| --- | --- |
| B7 | binds |
| B8 | binds |
| B10 | binds |
| B12 | binds |
| B13 | binds |
| B14 | binds |
